# From the nanobody polyreactivity screen of Harvey et al. (2022)
# Assay: yeast display, Sf9 membrane polyspecificity reagent, FACS + sequencing; frameworks hold sequencing errors
# Method in brief: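 Nanobodies from a synthetic yeast display library (Saccharomyces cerevisiae BJ5465), induced 36–48 hours with galactose, were stained 1 hour at 4 °C with 10% biotinylated, detergent-solubilized Sf9 membrane reagent, enriched on streptavidin microbeads, then FACS-sorted. Anti-HA (expression) and streptavidin (reagent binding) fluorescence set low and high (top ~1%) gates. Polyreactivity labels come from the gate of origin. Genes were colony-PCR amplified, MiSeq 2 × 250 sequenced and filtered by CDR length.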
row,Sequence,polyreactivity (PSR sort gate)
1,QVQLVESGRRLVQAGGSLRLSCAASGINFDSYAMGWYRQAPGKERELVAAITSDSGRTYYADSVTGRFTISRDNAKNTVYLQMNSVKPEDTPVYYCAKRWDGPYDYWGQGTQVTVSS,low polyreactivity
2,QVQLEESGGGLVQAGGSLRLSCAASGRTLRVNAIGWYRQAPGKERELVAANSSGGRTNYADSVKGRFTISRDNAKNTVYLQMNSLKPEDTAVYYCAVDRPRFPSRPPYHKYDYWGQGTQVTVSS,low polyreactivity
3,QVQLVESGGGLVQAGGSLRLSCAASGRTFTTYTMGWYRQAPGKERELVAAISWGGTSTYYADSVKGRFTISRDNAKNTVYLQMNSLKPDDTAVYYCNVLERGPGGPDDSWGQGTQVTVSS,low polyreactivity
4,QVQLVESGGGLVQAGGSLRLSCAASGSIFYRYAMGGYRQAPGKERELVAAISSRGGSTYYADSVKGRFTISRDTAKNTVYLQMNSLKPEDTAVYYCNKDNHDLELPVEFEYWGQGTQVTVSS,high polyreactivity
5,QVQLVESGGGLVQAGGSLRLSCAASGITFGYYAMGWYRQAPGKERELVATLTDGGGTKYADSVKGRFTISRDNAMNTVYLQMDSLKPEDTAVYYCAAGLRHVYATEYDYWGQGTQVTVSS,low polyreactivity
6,QVQLVESGGGLVQAGGSLRLSCAASGRTFAGYAMGWYRQAPGKERELVAAITNGGSTKYADSVKGRFTISRDNAKNTVYLQMNSLKPEDTAVYYCNARKRFYSGNTLMYYWGQGTQVTLSS,high polyreactivity
7,QVQLVESGGGLVQAGGSLRLSCAASGSIFGAYAMGWYRQAPGKERELVAAISGSGTSTYYADSVKGRFTISRDNAKNTVYLQMNSLKPDDTAVYYCATAKLTWRSQGLDYWGQGTQVTVSS,low polyreactivity
8,QVQRVESGGGLVQAGGSLRLSCAASGSIFPRYAMGWYRQAPGKEREMVATISSGGSTYYADSVKGRFTISRDNAKNTVYLQMNSLKPEHTAVYYCAARKRPYTVINGMDYWGQGTQVTVSS,low polyreactivity
9,QVQLVESGGGLVQAGGSLRLSCAASGIIFDGNAMGWYRQAPGKERELVAAISSRGSRTYYADSVKGRFTISRDNAKNTVYLQMNSLKPEDTAVYSCNAGYVFRSYGYDPWGQGTQVTVSS,high polyreactivity
10,QVQLVESGGGLVQAGGSLRLSCAASGRTFYIYAMGWYRQAPGKERELVAAITYGGGRTFYADSVKGRFTISRDNAKNTVYLQMNSLKPEDTAVYYCAATVRGKRSTYDYWGQGTQVTVSS,high polyreactivity
11,QVQLVESGGGLVQAGGSLRLSCAASGSIFIYAMGWYRQAPGKERELVATISWSGTSTYADSVKGRFTISRDNAKNTVYLQMNSLKPEDTAVYYCNKLKRTYYSSGYPHDYWGQGTQVTVSS,low polyreactivity
12,QVQLVESGGGLVQAGGSLRLSCAASGSTFIGNAMGWYRQAPGKERELVAAISRTGGSTYADSVKGRFTISRDNAKNTVYLQMNSLKPEDTAVYYCAAKYYYIYYYWGQGTQVTVSS,high polyreactivity
13,QVHRVESGGGLVQAGGCLRLSCAASGRTFARYVMGGYRQAPGKERELVAAINSGGTTYYADSVKGRFTISRDNAKNTVYLQMNSLKPEDTAVYYCNGRRGHYAYDYWGQGTQVTVSS,high polyreactivity
14,QFQLVESGGGLVQAGGSLRLSCAASGRTFYLYAMGWYRQAPGKERELVASISWNGGSTYYADSVKGLFTISRDNAKNYVYLQMNSLKPEDTAVYYCATDSHRSRLNRPYQLFPAYYYWGQGTQVTVSS,low polyreactivity
15,QVQLVESGGGIVQAGGSLRISCAASGSIFFGYAMGWYRPATGKERELVADITVGGGSPFYADSVKGRFTISRDNEKNTVYLQMNSLKPDDTAVYYCADDYYTQWLTRYDYWGQGTQVTLSS,low polyreactivity
16,QVQLVESGGGLVQAGGSLRLSCAASGRIFGYYAMGWYIQAPGKERELVAAINWRGGNTNYADSVKGRFTISRDNAKNTVYLQMNSLKPEDTAVYYCNAQVLVRPIQGEYGYWGQGTQVTVSS,low polyreactivity
17,QVHLVESGGGLVQAGGSLRLSCSASGSTFYIYTMGCYRQAPGKARELVAAISSSGGSTYYADSVKGRFTISRDNAKNTVYLQMNILKPEDTAVYYCAADPWVRLEYDYWGQGTQVTVSS,low polyreactivity
18,QVQLVESGGGLVQAGGSLRLSCAASGITFYRYAKGSYRQAPGKERELVAAIRRAGSTYYADSVKGRVTISRDNAKKTVYLQMNSLKPEDTAVYYCNARYGIGMNYWGQGTQVTVSS,high polyreactivity
19,QVQLVESGGGLVQAGGSLRLSCAASGYTFYFYARGWYRQAPGKERELGAAITGGGTTSYADSVKGRFTISRDNAKNTVYLQMNSLKPEDTAVYYCNLLFADKSDYWGQGTQVTVSS,low polyreactivity
20,QVQLVESGGGLVQAGGSLRLSCAASGLIFTTYDMGWYRQAPGKERELVAAISASSDTTYYADSVKGRFTISRDNAKNTVYLQMNSLKPEDTAVYYCAADRFDFPTATGSNYWGQGTQVTVSS,low polyreactivity
21,QVQLVESGGGLVQAGGSLRLSCAASGRIFYSYGMGWSRQGPGKERELVASITISGGGSTYYADSVKGRFTISRDNAKNTVYLQMISLKPEATAVYYCAATLTVWKYIYDYWGQGTQVTVSS,high polyreactivity
22,QVQLVESGGGLVQAGGSLRLSCAASGRTFGGNAMGWYRQAPGKEWELVAAIDQSGGSTYYADSVKGRFTISRDNAKNTVYLQMISLKPEDTAVYYCARKTYSYFGHYYFWGQGTQVTVSS,low polyreactivity

row,Sequence,polyreactivity (PSR sort gate)
1,QVQLVESGGGLVQAGGSLRLSCAASGFIFRRYAMVWYRQAPGKERELVAAISTGGSTYYADSVKGRFTISRDNAKNTVYLQMNSLKPDDTAVFYCNVKRRTYGQYRMYYWGQGTQVTVSS,low polyreactivity
2,QVQLVESGGGLVQAGGSLRLSWAASGSIFDENAMGLSRQAPGKERELVAAISRSTGSTYYADSVKGRFTISRDKAKNTVYVQMNSLKPEDTAVYYCNALTYLRGPPWYTLDYWGQGTQVTVSS,low polyreactivity
3,QVQLVESGGGLVQAGGSLRLSCAASGSIFTLNTMGWYIQAPGKERELVAVISRSGDRTYYADSVKGRFTISRDNAKNTVYLQMNSLKPEDTAVYYCAADTTKRVRGYDYWGQGTQVTVSS,high polyreactivity
4,QVQLVESGGGLVQAGGSLRLSCAASGYIFTRNAMGWYRQAAGKERELVATISSRGGRTYYADSVKGRFTISRDNAKNTVYLQMNSLKPEDTAVYYCAATPWYRTRTYDYWGQGSQVTVSS,high polyreactivity
5,QVQLVESGGGLVQAGGSLRLSCAASGRIFVVYAMGWYRQAPGKERELVAAITYGGGSTHYADSVKGRFTISRDNAMNTVYLQMISLKPEDTAVYYCAADLFYHSYGYEYWGQGTQVTVSS,low polyreactivity
6,QVQLVESGGGLVQAGGSLRLSCAASGIIFRGYVMGLYIQAPGKERELVAAINSSTGSTYYADSVKGRFTISRDNAKNTVYLQMNSLKPEDTAVYYCNAEDRGSTYVDFDYWGQGTQVTVSS,low polyreactivity
7,QVQLVESGGGLVQAGGSLRLSCAASGSIFPKNAMGWYRQATGKERELVARISGSGGSTYYADSVKGRFTISRDNAKNTVYLQMNSLKPEDTAVYYCAKDQSKIYSSWSGYYYWGQGTQVTVSS,low polyreactivity
8,QVQLVESGGGLDQAGGSLRLSCAASGSTFKHNAMGWYRQAPAKERVLVAGISWGGSSTYYADSVKGRFTISRDNAKNTVYLQMNSLKPDDTAVYYCAKGGYRRYGYDYWGQGTQVTVSS,low polyreactivity
9,QVQLVESGGGLVQAGGSLRLSCAASGVNAMGWYRPAPGKEREFVAAITSIGGSTYYADSVKGRFTISRDNAKNTVYLQMNSLKPEDTAVYYCNTDRGPVKVSPLYVSWGQGTQVTLSS,low polyreactivity
10,QVQLEESGGGLVQAGGSLRLTCAGSGRIFGIYAMGWYRQAPGKERQLVAAIRDSGSRTYYADSVKGRFTISRDNAKNTVYLQMNRLTPEDTAVYYCAARTYTYPYFGGYQYTYNYWGQGTQVTVSS,low polyreactivity
11,QVQLVESGGGLVQAGGSLRISCADSGSIFRRYAMGWYRQAPGKERELVAAISIGGGSTYYADSVKGRFTISRDNAKNTVYLLMTSLKPEDTAVYYCNKVEYDGAYDYWGQGTQVTVSS,low polyreactivity
12,QVQLVESGGGLVQAGGSLRLSCAASGRIFYLYAMGWYRQAPGKDRELVAAITWSGGSTTYADSVKGRFTISRDTAKNTVYLQMNSLKPEDTAVYYSNADGWIFPSFSPMDYWGQGTQVTVSS,low polyreactivity
13,QVQLVESGGGLVQAGGSLRLSCAASGRTFLSYTMGWYRQATGKERELVAAITTSGGSTNYADSVKGRFSISRDTAKNTVYLQMNRLKPEDTAVYYCADEWSVYFNDPRSDYWGQGTQVTVSS,high polyreactivity
14,QVQLVESGGGLVQAGGSLRLSCAASGFILKFYAMGWYRQAPGKERELVAAISRRGGSTYYADSVKGRFTISRDNAKNTVYLQMNSLKPEDTAVYHCAKDGTTSRVSDSSDYWGQGTQVTVSS,high polyreactivity
15,QVQLVESGGGLVQAGGSLRLSCAASGRTFNGYVMGWYSQAPGKEREFVAVINWSGGNTYYADSVKGRFTISRDNAKNTVYLQMNSLKPEDTAVYYCAARRVRSYAYDYWGQGTQVTVSS,high polyreactivity
16,QVQLVESGGGLGQAGGSLRLSCAASGSIFPAYAMGCYRQAPGKERELVAAITFSGGSTYYADSVKGRFTISRDNAKNTVYLQMNSLKPEDTAVYYCATDSYGWRFNRAITSYGGDYWGQGTQVTVSS,low polyreactivity
17,QVQLVESGGGLVQAGGRLRLSCAASGSTIKFNAMGWYRQAPGKERELVAAISRGGRTNYADSVKGRFTISRDNAKYTVYLQMNSLKPEDTAVYKCAKDVAGLFHVGALYYYWGQGTQVTVSS,low polyreactivity
18,QVQLVESGGGLVQAGGSLRISCAASGNIIRKYAMGWYRQAPGKEREFVAAISSSGGRTYYADSVKGRFTISRDNAKNTVYLQMNSLKPEDTAGYYCARPYSYAYVLGDYWGQGTQVTVSS,high polyreactivity
19,QVQLVESGGGLVQAGRSLRLSCAASGYTFYFYAKGWSRQAPGKDRELVASMTWRGGSPYYADSVKGRFTISRDNAKNTVYLQMNSLKPEETADYYCAKHVYYIYDYWGQGTQVTVSS,low polyreactivity
20,QVQLVESGGGLVQAGGSLRLSCAASGSTFRFYAMGWYRQAPGKERELLAAINGSGGSTYYADSVKGRFTISRDKAKSTVNLQMNSLKPEDTAVYYSAVLYRYGYDYWGQGTQVTVSS,low polyreactivity
21,QVQLVESGGGLVQAGGSLRLSCAASGFIFRYYAMGWYRQAPGKERELFAAISWSGGTTYYADSVKGRFTISRDNAKNTVYLQMNSLKPEDTAVYYCNAGYNGKRRDPVDYWGQGTQVTVSS,low polyreactivity
